The data set in a line: protein stability index of a GFP-peptide fusion (GPS, HEK-293T) (PSI 1-6); higher = more stable.
Setting [1] is: treatment: DMSO, c terminus: a fixed tail appended.
[2] abbreviates: treatment: MLN4924 1 uM, 8 h, c terminus: a fixed tail appended.

± gives the standard deviation.
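Also: 24-mer peptide tiles fused after GFP, lentivirally expressed, FACS-sorted into six equal bins by GFP/DsRed ratio, decoded by Illumina sequencing, PSI is the read-weighted mean bin number.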

REALTRLQELCYQWLRPHVSTKEQ [ZSCAN9]: the protein stability index reads like this: under setting [1], 1.99 ± 0.24; under setting [2], 2.46 ± 0.32.

In the case of REALVLRSVRVRLLLSFWKETDPL [PLD5], the protein stability index was found to be 2.58 ± 1.1 under setting [1] and 2.38 ± 0.39 under setting [2].

In the case of RELWLKFHEVGTEMIITKAGRRMF [TBX5], the protein stability index by setting is: under setting [1], 2.31 ± 0.23; under setting [2], 2.37 ± 0.31.

As to RENKRMADSLASKVTRLKSLALDI [BET1L], the protein stability index is, setting by setting: under setting [1], 2.63 ± 0.12; under setting [2], 2.7 ± 0.31.

For RERIQILKTSEVTQHLPRECLPEN [PTPN9], the protein stability index came out at 4.46 ± 0.19 under setting [1] and 4.36 ± 0.31 under setting [2].

As for RERLGEIHTLPLPASLKAYLLYQ [SPSB1], the protein stability index reads like this: (treatment: DMSO, c terminus: native) 2.3 ± 0.32; (treatment: MLN4924 1 uM, 8 h, c terminus: native) 2.26 ± 0.27.

On to REWYYGNVTRHQAECALNERGVEG [NCK2], for which the protein stability index came to 3.33 ± 0.12 under setting [1] and 3.68 ± 0.16 under setting [2].

Consider RFHGRLLFLKDVLGDEICCWSFYG [KCTD13], for which the protein stability index runs as follows: under setting [1], 2.49 ± 0.38; under setting [2], 2.56 ± 0.71.

For RFTGTMDAFVKIVRHEGTRTLWSG [SLC25A39], the protein stability index worked out at 2.53 ± 0.52 under setting [1] and 2.47 ± 0.25 under setting [2].

Take RHSNVVILTTSNITEKIDVAFVDR [TRIP13]: the protein stability index stood at 2.34 ± 0.29 under setting [1] and 2.14 ± 0.16 under setting [2].

With RIFKLSRHSKGLQILGQTLKASMR [KCNA1], the protein stability index runs as follows: under setting [1], 2.54 ± 0.4; under setting [2], 2.65 ± 0.58.

Sequence RIFRLPNNWYYISPRLTFQCLEDL [SLA] yielded a protein stability index under setting [1] of 2.53 ± 0.28 and a protein stability index under setting [2] of 2.38 ± 0.39.

RIIYQNKCMRNGPNALIASLALGD [EDNRA]: the protein stability index reads like this: under setting [1], 2.48 ± 0.18; under setting [2], 2.26 ± 0.21.

For the sequence RKAITEAANAARHVAPEIRELLTQ [PWWP2B], the protein stability index came to 4.06 ± 0.29 under setting [1] and 4.05 ± 0.079 under setting [2].

Turning to RKDTKEIYTHFTCATDTKNVQFVF [GNAI1], the protein stability index is, setting by setting: under setting [1], 2.49 ± 1; under setting [2], 2.64 ± 0.43.

Consider RLCGRQVSRGPGVNVGTTALWKHL [ZBED2], for which the protein stability index is, setting by setting: under setting [1], 2.29 ± 0.36; under setting [2], 2.17 ± 0.31.

Turning to RLDIVKYLVENNANISIANKYDNT [FEM1B], the protein stability index runs as follows: under setting [1], 2.5 ± 0.17; under setting [2], 2.64 ± 0.4.

On to RLEALSTERDEIEDVKCQEDQKLQ [TRIM15], for which the protein stability index turned out to be 5.21 ± 0.32 under setting [1] and 5.66 ± 0.16 under setting [2].

For RLEDKVKTLKAENAGLSSTAGLLR [JUNB], the protein stability index runs as follows: under setting [1], 3.7 ± 0.22; under setting [2], 3.97 ± 0.3.

For RLELERKIESLMDEIEFLKKLHEE [PRPH], the protein stability index stood at 3.32 ± 0.17 under setting [1] and 3.44 ± 0.31 under setting [2].

On to RLGPYVLLEPEEGGRAYQALHCPT [TRIB3], for which the protein stability index worked out at 2.69 ± 0.1 under setting [1] and 2.87 ± 0.38 under setting [2].

For RLKCRSFKWYLENVYPEMRVYNNT [GALNT9], the protein stability index is, setting by setting: under setting [1], 2.42 ± 0.17; under setting [2], 2.19 ± 0.2.

RLKEYTIKSHSSLPPNNSYADFER [DAPK3]: the protein stability index is, setting by setting: under setting [1], 3.58 ± 0.26; under setting [2], 3.61 ± 0.25.

In turn, RLNLTNTKQNFFSQTPILQALQHV [INTS3] showed a protein stability index under setting [1] of 2.23 ± 0.092 and a protein stability index under setting [2] of 2.5 ± 0.17.

For RLVFLAAFVVYLETETLVTREAVT [TSN], the protein stability index runs as follows: under setting [1], 3.6 ± 0.24; under setting [2], 2.82 ± 0.34.

In turn, RLVRVFRIFKLSRHSKGLQILGQT [KCNA1] gave a protein stability index under setting [1] of 2.65 ± 0.57 and a protein stability index under setting [2] of 2.29 ± 0.36.

Consider RMGATMAAINSIYSNTDANILFYV [GLT8D2], for which the protein stability index is 2.63 ± 0.59 under setting [1] and 3.14 ± 1.5 under setting [2].

As for RMTISLTVILIESTNEITYGLPIM [CLCN6], the protein stability index by setting is: under setting [1], 2.98 ± 0.3; under setting [2], 3.06 ± 0.092.

For the sequence RNLEDIHMSLEKDIAAMTNSLFID [TEKT4], the protein stability index is, setting by setting: under setting [1], 3.29 ± 0.33; under setting [2], 3.33 ± 0.27.

Regarding RNLHSHYHEAPMTRKHYQVTGYGI [POMT2], the protein stability index amounted to 2.35 ± 0.15 under setting [1] and 2.46 ± 0.23 under setting [2].

Consider RNSLSAIFNNVMTLCAMLPLLLFT [SLC29A1], for which the protein stability index worked out at 3.3 ± 0.65 under setting [1] and 3.33 ± 0.22 under setting [2].

With RPRALPCQRSRYRDSLTQPDEEPM [RSPH3], the protein stability index amounted to 4.62 ± 0.36 under setting [1] and 5.01 ± 0.17 under setting [2].

For RPRKLYKHSSTSSRIAKGGVDHTK [BTBD10], the protein stability index by setting is: under setting [1], 4.06 ± 0.21; under setting [2], 4.12 ± 0.23.

Take RRFNFDTDRPLLSTLEESVVRICC [SMG5]: the protein stability index is, setting by setting: under setting [1], 2.17 ± 0.25; under setting [2], 2.19 ± 0.22.

As to RSALWCLGLNAAFWFFALTSLRLV [RETREG3], the protein stability index was found to be 2.91 ± 0.53 under setting [1] and 3.03 ± 0.72 under setting [2].

With RSHSDSLDHDIFQLIDPDENKENE [CDC25A], the protein stability index is, setting by setting: under setting [1], 5.14 ± 0.44; under setting [2], 5.48 ± 0.2.

Take RSWMFRRGPLNSDRSDYFAAWGAR [TRIM43]: the protein stability index reads like this: under setting [1], 2.5 ± 0.14; under setting [2], 2.62 ± 0.47.

On to RTKVVKPYSTVDNPVYYGPSDFFI [EFHC1], for which the protein stability index came out at 2.35 ± 0.22 under setting [1] and 2.42 ± 0.36 under setting [2].

In turn, RTLKSYLGLTNQSRRYNRKEPAEF [ZNF649] yielded a protein stability index under setting [1] of 3.09 ± 0.31 and a protein stability index under setting [2] of 3.05 ± 0.48.

RTSSGTSREKTACAINKVGVSFST [FAM98B]: the protein stability index is, setting by setting: under setting [1], 3.29 ± 0.29; under setting [2], 3.87 ± 0.46.

Take RVKLISNKGTETDNDPSCVHPIIK [PHTF1]: the protein stability index by setting is: under setting [1], 3.58 ± 0.16; under setting [2], 3.83 ± 0.35.

As to RVPAGIFKHTLSISRALLSDVVPE [MFSD9], the protein stability index amounted to 2.82 ± 0.74 under setting [1] and 3.02 ± 0.22 under setting [2].

With RVRLDSELRNVQDVVEDYKKRYEE [KRT71], the protein stability index by setting is: under setting [1], 4.81 ± 0.28; under setting [2], 4.97 ± 0.32.

Consider RYADLEAVNRARRPLARPIKRGDI [RHOBTB1], for which the protein stability index under setting [1] stood at 3.6 ± 0.4 and the protein stability index under setting [2] is 3.83 ± 0.12.

For SAPVETPRGKPPLNTRSQAPLLRW [HMOX1], the protein stability index stood at 3.64 ± 0.26 under setting [1] and 3.72 ± 0.24 under setting [2].

For SASAKRVWNMTATRPKKMGSQLPK [FATE1], the protein stability index by setting is: under setting [1], 3.76 ± 0.27; under setting [2], 3.79 ± 0.18.

Sequence SCEVSEENCERREAFWAEWKDLTL [TCAP] displayed a protein stability index under setting [1] of 4.16 ± 0.2 and a protein stability index under setting [2] of 4.21 ± 0.39.

Turning to SDDAAAPALETQPQGDEEDIASRY [SMOC2], the protein stability index worked out at 5.62 ± 0.18 under setting [1] and 5.47 ± 0.11 under setting [2].

Consider SDSDSELSSSEGLEPGSADPLANG [PSD2], for which the protein stability index by setting is: under setting [1], 5.5 ± 0.35; under setting [2], 5.59 ± 0.14.

Take SENIKLREENEKLRLENSSLFSQA [CCDC89]: the protein stability index under setting [1] worked out at 4.65 ± 0.08 and the protein stability index under setting [2] is 4.58 ± 0.2.

In the case of SENMWNTGSTYNLSSGMAVAGMPT [CARM1], the protein stability index is, setting by setting: under setting [1], 3.48 ± 0.15; under setting [2], 3.63 ± 0.1.

In the case of SFDYEQFHELQMQVTASDSGDPPL [PCDHGA10], the protein stability index is, setting by setting: under setting [1], 4.89 ± 0.21; under setting [2], 4.9 ± 0.15.

As to SFFVPRPTPSTPRPTPQDWLHRRA [ADAMTS4], the protein stability index under setting [1] came out at 3.4 ± 0.21 and the protein stability index under setting [2] is 3.4 ± 0.084.

The values are drawn from the supplement of paper PMC10567573.
